From US20250382359A1 (BYOMASS, published 2025)

T1: Human GDF15 Fc (human, UniProt Q99988 195-308, limits assumed, biotinylated (EZ-Link Sulfo-NHS-Biotinylation Kit) in the SPR assay)
T1 construct: also called human GDF15-Fc fusion; biotinylated Human GDF15 Fc; not shown: Fc part
T1 sequence: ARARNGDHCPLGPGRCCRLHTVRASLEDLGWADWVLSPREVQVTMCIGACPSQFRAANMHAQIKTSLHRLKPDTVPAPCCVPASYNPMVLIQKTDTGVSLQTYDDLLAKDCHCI

T2: GDF15 (ligand used in the GFRAL/RET cell assays) (UniProt Q99988 197-308, limits assumed)
T2 sequence (looked up): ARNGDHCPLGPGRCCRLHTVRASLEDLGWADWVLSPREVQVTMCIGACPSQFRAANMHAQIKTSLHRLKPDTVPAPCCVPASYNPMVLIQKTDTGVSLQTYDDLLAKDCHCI

T3: GDNF (UniProt P39905 78-211)
T3 sequence (looked up): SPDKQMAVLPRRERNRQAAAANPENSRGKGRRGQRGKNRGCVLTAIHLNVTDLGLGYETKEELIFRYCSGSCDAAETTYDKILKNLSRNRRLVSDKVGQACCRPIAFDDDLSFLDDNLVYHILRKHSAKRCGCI

T4: Human Activin A Fc (human, UniProt P08476 311-426)
T4 construct: not shown: Fc part
T4 sequence (looked up): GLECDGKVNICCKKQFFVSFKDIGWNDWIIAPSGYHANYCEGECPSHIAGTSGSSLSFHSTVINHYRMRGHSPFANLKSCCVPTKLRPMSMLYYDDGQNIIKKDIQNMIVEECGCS

T5: Human BMP10 (human, UniProt O95393 317-424)
T5 sequence (looked up): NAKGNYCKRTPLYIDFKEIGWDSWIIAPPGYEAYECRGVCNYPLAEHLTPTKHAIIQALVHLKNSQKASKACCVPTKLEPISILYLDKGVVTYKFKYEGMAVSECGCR

T6: Human Activin B (human, UniProt P09529 293-407)
T6 sequence (looked up): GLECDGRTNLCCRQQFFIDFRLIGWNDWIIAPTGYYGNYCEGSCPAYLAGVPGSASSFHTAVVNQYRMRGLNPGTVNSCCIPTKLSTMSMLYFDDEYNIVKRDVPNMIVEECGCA

T7: Mouse GDF15 Fc (mouse, UniProt Q9Z0J7 189-303, limits assumed)
T7 construct: also called mouse GDF15-Fc fusion; not shown: Fc part
T7 sequence (looked up): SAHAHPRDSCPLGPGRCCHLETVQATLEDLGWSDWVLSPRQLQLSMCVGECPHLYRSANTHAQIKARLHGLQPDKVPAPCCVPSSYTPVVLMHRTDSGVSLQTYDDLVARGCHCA

T8: Cyno GDF15 Fc (cyno, UniProt G7PWZ3 193-308, limits assumed)
T8 construct: also called cyno GDF15-Fc fusion; not shown: Fc part
T8 sequence: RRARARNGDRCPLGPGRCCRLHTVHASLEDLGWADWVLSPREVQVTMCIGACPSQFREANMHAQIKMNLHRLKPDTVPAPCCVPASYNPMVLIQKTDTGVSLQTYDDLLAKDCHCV

T9: Human BMP9 (human, UniProt Q9UK05 320-429)
T9 sequence (looked up): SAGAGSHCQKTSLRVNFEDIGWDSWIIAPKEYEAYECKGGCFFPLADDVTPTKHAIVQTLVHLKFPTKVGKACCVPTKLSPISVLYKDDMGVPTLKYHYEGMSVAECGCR

T10: GDF10 (UniProt P55107 369-478)
T10 sequence (looked up): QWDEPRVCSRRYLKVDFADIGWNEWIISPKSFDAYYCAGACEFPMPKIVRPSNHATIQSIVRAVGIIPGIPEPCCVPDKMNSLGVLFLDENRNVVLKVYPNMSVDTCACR


Tests used:
[1] = biological target: T1, Human GDF15 Fc; assay: BLI Octet; IgG on sensor, 100 nM antigen (avid)
Protocol: Briefly, ForteBio affinity measurements were performed by loading IgGs on-line onto AHC sensors. Sensors were equilibrated off-line in assay buffer for 30 min and then monitored on-line for 60 seconds for baseline establishment. Sensors with loaded IgGs were exposed to 100 nM antigen for 3 minutes, and afterwards were transferred to assay buffer for 3 min for off-rate measurement. All kinetics were analyzed using the 1:1 binding model.

[2] = biological target: T2, GDF15 (ligand used in the GFRAL/RET …); assay: cell-based or functional assay
[3] = biological target: T3, GDNF; assay: BLI Octet; IgG on sensor
[4] = biological target: T4, Human Activin A Fc; assay: BLI Octet; IgG on sensor
[5] = biological target: T5, Human BMP10; assay: BLI Octet; IgG on sensor
[6] = biological target: GDF8 (UniProt O14793 267-375); assay: BLI Octet; IgG on sensor
[7] = biological target: T11, GDF11 (UniProt O95390 299-407); assay: BLI Octet; IgG on sensor
T11 construct: Also used as ligand in the Activin 2B receptor/SMAD reporter assay
T11 sequence (O95390 299-407 limits assumed): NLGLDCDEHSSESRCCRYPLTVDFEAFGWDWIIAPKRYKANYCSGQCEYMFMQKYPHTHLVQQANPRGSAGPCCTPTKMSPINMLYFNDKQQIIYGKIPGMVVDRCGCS

[8] = biological target: T6, Human Activin B; assay: BLI Octet; IgG on sensor
[9] = biological target: T7, Mouse GDF15 Fc; assay: BLI Octet; antigen on sensor, 100 nM Fab (monovalent)
[10] = biological target: T8, Cyno GDF15 Fc; assay: as above
[11] = biological target: T9, Human BMP9; assay: BLI Octet; IgG on sensor
[12] = biological target: T10, GDF10; assay: BLI Octet; IgG on sensor

Binder | Kd [1] | GDF15-GFRAL RET pERK IC50 (pM) [2] | GDF15-GFRAL-RET Luciferase IC50 (pM) [2] | binding result [3] | binding result [4] | binding result [5] | binding result [6] | binding result [7] | binding result [8] | GDF15 GFRAL RET pERK Fab IC50 pM [2] | Kd [9] | Kd [10] | binding result [11] | binding result [12]
GDF15 antibody agent Clone F, IgG (antibody, V domains shown) VH: QVQLVQSGAEVKKPGSSVKVSCKASGGTFGGYAISWVRQAPGQGLEWMGGIIPPYATANYAQKFQGRVTITADESTSTAYMELSSLRSEDTAVYYCARGVGTTHLDVWGQGTMVTVSS VL: not shown | 0.244 nM | 34.9 pM | 91.3 pM | no binding (tested: 100 nM) | no binding (tested: 100 nM) | no binding (tested: 100 nM) | no binding (tested: 100 nM) | no binding (tested: 100 nM) | no binding (tested: 100 nM) |  |  |  |  | 
GDF15 antibody agent Clone F, Fab (Fab, V domains shown, Fab; CH1 and CL of the Fab not specified; also called Fab of Clone F) VH: QVQLVQSGAEVKKPGSSVKVSCKASGGTFGGYAISWVRQAPGQGLEWMGGIIPPYATANYAQKFQGRVTITADESTSTAYMELSSLRSEDTAVYYCARGVGTTHLDVWGQGTMVTVSS VL: not shown |  |  |  |  |  |  |  |  |  | 11.2 pM | 26.1 nM | 0.553 nM |  | 
GDF15 antibody agent Clone J, IgG (antibody, V domains shown) VH: QVQLVQSGAEVKKPGASVKVSCKASGYTFTSYGINWVRQAPGQGLEWMGWIDAYSGSTNYAQKLQGRVTMTTDTSTSTAYMELRSLRSDDTAVYYCARGPGQYADVDVWGQGTMVTVSS VL: DIQMTQSPSSVSASVGDRVTITCRASQGISSWLAWYQQKPGKAPKLLIYAASSLQSGVPSRFSGSGSGTDFTLTISSLQPEDFATYYCQQANSFPITFGGGTKVEIKR | 0.276 nM | 30.3 pM | 110 pM |  | no binding (tested: 100 nM) | no binding (tested: 100 nM) | no binding (tested: 100 nM) | no binding (tested: 100 nM) | no binding (tested: 100 nM) |  |  |  | no binding (tested: 100 nM) | no binding (tested: 100 nM)
GDF15 antibody agent Clone B, Fab (Fab, V domains shown, Fab; CH1 and CL of the Fab not specified; also called Fab of Clone B) VH: QVQLQESGPGLVKPSQTLSLTCTVSGGSISSGGIYWTWIRQHPGKGLEWIGAIAYSGSTYYNPSLKSRVTISVDTSKNQFSLKLSSVTAADTAVYYCARGIEYQHFDYWGQGTLVTVSS VL: not shown |  |  |  |  |  |  |  |  |  | 30.9 pM |  | 0.349 nM |  | 

Continued, values first:

Kd [1] | GDF15-GFRAL RET pERK IC50 (pM) [2] | GDF15-GFRAL-RET Luciferase IC50 (pM) [2] | binding result [3] | binding result [4] | binding result [5] | binding result [6] | binding result [7] | binding result [8] | GDF15 GFRAL RET pERK Fab IC50 pM [2] | Kd [9] | Kd [10] | binding result [11] | binding result [12] | Binder
 |  |  |  |  |  |  |  |  | 33.2 pM |  | 0.474 nM |  |  | GDF15 antibody agent Clone G, Fab (Fab, V domains shown, Fab; CH1 and CL of the Fab not specified; also called Fab of Clone G) VH: QVQLVQSGAEVKKPGSSVKVSCKASGGTFQGYAISWARQAPGQGLEWMGGIIPPYATANYAQKFQGRVTITADESTSTAYMELSSLRSEDTAVYYCARGVGELHLDVWGQGTMVTVSS VL: not shown
0.262 nM | 34.5 pM | 79.3 pM |  | no binding (tested: 100 nM) | no binding (tested: 100 nM) | no binding (tested: 100 nM) | no binding (tested: 100 nM) | no binding (tested: 100 nM) |  |  |  | no binding (tested: 100 nM) | no binding (tested: 100 nM) | GDF15 antibody agent Clone I, IgG (antibody, V domains shown) VH: QVQLVQSGAEVKKPGASVKVSCKASGYTFTDEGINWVRQAPGQGLEWMGWITAYSGDTVYAQKLQGRVTMTTDTSTSTAYMELRSLRSDDTAVYYCARGPGQYADVDVWGQGTMVTVSS VL: DIQMTQSPSSVSASVGDRVTITCRASQGISSWLAWYQQKPGKAPKLLIYAASSLQSGVPSRFSGSGSGTDFTLTISSLQPEDFATYYCQQANSFPITFGGGTKVEIKR
